The target of series [1] is T1, Lys(Dnp)-ATNATMRPRIVGG-Lys(Abz).
T1 chain: KATNATMRPRIVGGK

Series [2] concerns the target T2, Lys(Dnp)-ATNATPYPRIVGG-Lys(Abz).
T2 chain: KATNATPYPRIVGGK

The target in series [3] is T3, Lys(Dnp)-ATNATLAPRIVGG-Lys(Abz).
T3 chain: KATNATLAPRIVGGK

The target of series [4] is T4, Lys(Dnp)-ATNATWVPRIVGG-Lys(Abz).
T4 chain: KATNATWVPRIVGGK

Series [5] addresses T5, Lys(Dnp)-ATNATTPPRIVGG-Lys(Abz).
T5 chain: KATNATTPPRIVGGK

Series [6] deals with T6, Lys(Dnp)-ATNATWEPRIVGG-Lys(Abz).
T6 chain: KATNATWEPRIVGGK

Series [7] has as its target T7, Lys(Dnp)-ATNATTTPRIVGG-Lys(Abz).
T7 chain: KATNATTTPRIVGGK

B1: Human plasma purified Factor Xa (protein)
chain 1: ANSFLEEMKKGHLERECMEETCSYEEAREVFEDSDKTNEFWNKYKDGDQCETSPCQNQGKCKDGLGEYTCTCLEGFEGKNCELFTRKLCSLDNGDCDQFCHEEQNSVVCSCARGYTLADNGKACIPTGPYPCGKQTLER
chain 2: IVGGQECKDGECPWQALLINEENEGFCGGTILSEFYILTAAHCLYQAKRFKVRVGDRNTEQEEGGEAVHEVEVVIKHNRFTKETYDFDIAVLRLKTPITFRMNVAPACLPERDWAESTLMTQKTGIVSGFGRTHEKGRQSTRLKMLEVPYVDRNSCKLSSSFIITQNMFCAGYDTKQEDACQGDSGGPHVTRFKDTYFVTGIVSWGEGCARKGKYGIYTKVTAFLKWIDRSMKTRGLPKAKSHAPEVITSSPLK
As to B1, the figures for the FXa kcat/KM in series [1], in series [2] and in series [3] were 490 M⁻¹ s⁻¹, 83 M⁻¹ s⁻¹ and 230 M⁻¹ s⁻¹, respectively.

B2: Human plasma purified Factor Xa (Molecular Innovations, Inc) (protein)
chain 1: ANSFLEEMKKGHLERECMEETCSYEEAREVFEDSDKTNEFWNKYKDGDQCETSPCQNQGKCKDGLGEYTCTCLEGFEGKNCELFTRKLCSLDNGDCDQFCHEEQNSVVCSCARGYTLADNGKACIPTGPYPCGKQTLER
chain 2: IVGGQECKDGECPWQALLINEENEGFCGGTILSEFYILTAAHCLYQAKRFKVRVGDRNTEQEEGGEAVHEVEVVIKHNRFTKETYDFDIAVLRLKTPITFRMNVAPACLPERDWAESTLMTQKTGIVSGFGRTHEKGRQSTRLKMLEVPYVDRNSCKLSSSFIITQNMFCAGYDTKQEDACQGDSGGPHVTRFKDTYFVTGIVSWGEGCARKGKYGIYTKVTAFLKWIDRSMKTRGLPKAKSHAPEVITSSPLK
Take B2: the FXa kcat/KM is 86 M⁻¹ s⁻¹ in series [4], 72 M⁻¹ s⁻¹ in series [5], 24 M⁻¹ s⁻¹ in series [6] and 17 M⁻¹ s⁻¹ in series [7].

The record behind these values is patent publication US20160024487.
